Results on 1 molecule are retold here after patent US20260109758A1 (BIOSION, published 2026).

In assay [1] the target is T1, human IL4Rα expressed on 293F-IL4Rα cell surface (human, UniProt P24394 26-825).
T1 construct: whole, on cells; also called human IL4Rα-expressing cells; cell surface IL4R
Put plainly: flow cytometry on 293F-IL4Rα cells, PE anti-human IgG Fc. How it is done: Cells were washed twice with FACS buffer, and added with 100 μL/well R-Phycoerythrin AffiniPure Goat Anti-Human IgG, Fey fragment specific (1:1000 dilution in FACS buffer, Jackson Immunoresearch, Cat #109-115-098). Following an incubation of 40 minutes at 4° C. in dark, cells were washed three times and resuspended in FACS buffer. Fluorescence was measured using a Becton Dickinson FACS Canto II-HTS equipment. Data was analyzed using Graphpad Prism and EC₅₀ values were reported.
(A flow cytometer gives signals particle by particle.)

The target in assay [2] is T2, recombinant human TSLP-his (human, UniProt Q969D9 29-159, biotin-labeled in the ELISAs).
T2 construct: In-house made; not shown: His tag at the C-terminus
Put plainly: SPR Biacore; TSLP-his amine-coupled to CM5 chip, antibody as analyte; 1:1 Langmuir fit. How it is done:
Un-reacted moieties on the biosensor surface were blocked with ethanolamine. Then, serially diluted purified bispecific antibodies and the controls (2-fold serial dilution in HBS-EP⁺ buffer starting at 100 nM) were respectively flowed onto the chip at a flow rate of 30 μL/min. The antigen-antibody association kinetics was followed for 4 minutes and the dissociation kinetics was followed for 13 minutes.
(SPR reads the build-up and loss of mass on a sensor chip optically.)

Assay [3] concerns the target T1, human IL4Rα expressed on 293F-IL4Rα …. Briefly: cell-based blocking FACS on 293F-IL4Rα cells; blocked ligand biotin human IL4. How it is done:
Then, 1×10⁵ cells per well were incubated in 96 well-plates in 100 μL of serially diluted bispecific antibodies, the positive controls or negative control (starting at 100 nM with a 5-fold serial dilution) in FACS buffer for 40 minutes on ice. […] The plates were washed twice with FACS buffer, and then added and incubated for 40 minutes at 4° C. in dark with 100 μL/well R-Phycoerythrin Streptavidin (1:500 dilution in FACS buffer, Jackson Immunoresearch, Cat #016-110-084). Cells were washed twice and resuspended in FACS buffer. Fluorescence was measured using a Becton Dickinson FACS Canto II-HTS equipment. Data was analyzed using Graphpad Prism and IC₅₀ values were reported.

Assay [4] deals with T3, recombinant human IL4Rα-his (human, UniProt P24394 26-231, limits assumed, biotin-labeled in the capture ELISA).
T3 construct: In-house made; not shown: His tag at the C-terminus
Briefly: capture ELISA: antibody captured on anti-human IgG Fc F(ab')2, biotin human IL4Rα-his, SA-HRP. How it is done:
Briefly, 96-well plates were coated with 2 μg/mL AffiniPure F(ab′)₂ Fragment Goat Anti-Human IgG, Fey fragment specific (Jackson Immuno Research, Cat #109-006-008) in PBS, 100 μL/well, overnight at 4° C. Plates were washed once with wash buffer (PBS+0.05% w/v Tween-20, PBST) and then blocked with 200 μL/well blocking buffer (5% w/v non-fatty milk in PBST) for 2 hours at 37° C. […] After a final wash, plates were incubated with 100 μL/well ELISA substrate TMB (Innoreagents, Cat #TMB-S-002). The reaction was stopped in 10 minutes at 25° C. with 50 μL/well 1M H₂SO₄, and the absorbance was read on a microplate reader using dual wavelength mode with 450 nm for TMB and 630 nm as the reference wavelength. Data was analyzed using Graphpad Prism and EC₅₀ values were reported.
In general terms: ELISA stands for enzyme-linked immunosorbent assay.

Assay [5] deals with T3, recombinant human IL4Rα-his. Briefly: SPR Biacore T200; antibody captured on anti-human IgG CM5 chip, IL4Rα-his as analyte; 1:1 Langmuir fit. On the procedure:
The goat anti-human IgG (GE healthcare, Cat #BR100839, Human Antibody Capture Kit) was covalently linked to a CM5 chip (carboxy methyl dextran coated chip) via primary amines, using a standard amine coupling kit provided by Biacore (GE healthcare, Pittsburgh, PA, USA). Un-reacted moieties on the biosensor surface were blocked with ethanolamine. Then, purified bispecific antibodies of the disclosure at the concentration of 66.67 nM and the controls at 10 μg/mL, were flowed onto the chip at a flow rate of 10 μL/min. Then, serially diluted recombinant human IL4Rα-his (in house made, IL4Rα of SEQ ID NO: 33 with His tag at C-terminus) in HBS EP buffer (provided by Biacore) was flowed onto the chip at a flow rate of 30 μL/min. The association and dissociation curves were fit to a 1:1 Langmuir binding model using BIAcore evaluation software.

Assay [6] has the same target. Put plainly: competitive ELISA: coated human IL4Rα-his, antibody titrated; blocked ligand biotin human IL4. On the procedure:
Briefly, 100 μL human IL4Rα-his proteins (prepared in-house, IL4Rα of SEQ ID NO: 33 with C-terminal His tag) were coated on 96-well micro plates at 2 μg/mL in PBS overnight at 4° C. The next day, plates were washed with wash buffer (PBS+0.05% w/v Tween-20, PBST), and blocked with 5% w/v non-fatty milk in PBST for 2 hours at 37° C. Plates were then washed again using wash buffer. Serially diluted bispecific antibodies or the controls (starting at 100 nM with a 5-fold serial dilution) in 2.5% w/v non-fatty milk in PBST, 100 μL per well, were added to the IL4Rα bound plates, and incubated at 37° C. for 40 minutes. […] Plates were washed again using wash buffer. Thereafter, the plates were added with 100 μL/well of streptavidin conjugated HRP (1:10000 dilution in PBST buffer, Jackson Immunoresearch, Cat #016-030-084) and incubated for 40 minutes at 37° C. Plates were washed again using wash buffer. Finally, TMB was added and the reaction was stopped using 1M H₂SO₄, and the absorbance was read at 450 nm. Data was analyzed using Graphpad Prism and IC₅₀ values were reported.

Assay [7] has the same target. Briefly: dual-binding ELISA: coated human IL4Rα-his, antibody titrated, detection with biotin human TSLP-his and SA-HRP; signal needs both antigens bound. How it is done: For the dual-binding ELISA, 96-well ELISA plates were firstly coated with 100 μL 1 μg/mL human IL4Rα-his protein (IL4Rα of SEQ ID NO: 33 with His tag at C terminus, prepared in-house) in PBS overnight at 4° C. ELISA plates were washed 4 times with wash buffer (PBS+0.05% Tween-20, PBST) and then blocked with 200 μL/well blocking buffer (5% w/v non-fatty milk in PBST) for 2 hours at 37° C. […] ELISA plates were washed again and incubated with SA-HRP (100 μl/well) for 40 minutes at 37° C. After the final wash, 100 μL/well TMB (Innoreagents) was added. The reaction was stopped 15 minutes later at room temperature with 50 μL/well 1M H₂SO₄, and the absorbance was read on a microplate reader using dual wavelength mode with 450 nm for TMB and 630 nm as the reference wavelength. The OD (450-630) values were plotted against antibody concentration. Data was analyzed using Graphpad Prism and EC₅₀ values were reported.

The target in assay [8] is T4, biotin-labeled human TSLP-Fc (human, biotin-labeled).
T4 construct: also called TSLP-Fc protein; TSLP-Fc-biotin
Briefly: cell-based blocking FACS: antibody pre-mixed with biotin human TSLP-Fc; blocked binding to cell-surface TSLPR/IL7Ra on HEK293T-TSLPR/IL7R/STAT5-Luc 5C5 cells. On the procedure:
The cells were prepared following the instruction of lipofectamine 3000 transfection reagent (Thermo Fisher), by transfecting HEK293T cells (ATCC® CRL-11268) with pCMV-T-P plasmids inserted with TSLPR coding sequence between EcoRI and Xba1 sites and pCMV3-SP plasmids inserted with IL7Ra coding sequence between HindIII and Xba1 sites as well as pGL4.52 [luc2P/STAT5RE/Hygro](Promega).
The cells were harvested from cell culture flasks, washed twice and re-suspended in phosphate buffered saline (PBS) containing 2% v/v Fetal Bovine Serum (FACS buffer). […] Cells were washed twice with FACS buffer, and then added and incubated with 100 μL/well R-Phycoerythrin Streptavidin (1:500 dilution in FACS buffer, Jackson Immunoresearch, Cat #016-110-084) for 40 minutes at 4° C. in dark. Cells were washed twice and re-suspended in FACS buffer. Fluorescence was measured using a Becton Dickinson FACS Canto II-HTS equipment. Data was analyzed using Graphpad Prism and IC₅₀ values were reported.

Broadly, the EC50 is the concentration that produces a half-maximal response. As a reminder, the Kd is the free concentration of one partner at which half of the binding sites on the other are occupied at equilibrium, for simple one-to-one binding. A word on the koff: it is the rate constant with which the complex falls apart. As usually defined, the kon is the second-order rate constant of association. A word on the IC50: it is the point on the concentration scale where inhibition reaches its midpoint.

B1: BSI-502-006 (bispecific antibody, human IgG1, kappa)
heavy: QVQLVQSGAEVKKPGASVKVSCKASGYTFTTYWMHWVRQAPGQGLEWMGVIDPSDSDTTYNQKFKGRVTMTRDTSTSTVYMELSSLRSEDTAVYYCTRSLDGYYDYWGQGTLVTVSSASTKGPSVFPLAPSSKSTSGGTAALGCLVKDYFPEPVTVSWNSGALTSGVHTFPAVLQSSGLYSLSSVVTVPSSSLGTQTYICNVNHKPSNTKVDKKVEPKSCDKTHTCPPCPAPEAQGGPSVFLFPPKPKDTLYITREPEVTCVVVDVSHEDPEVKFNWYVDGVEVHNAKTKPREEQYNSTYRVVSVLTVLHQDWLNGKEYKCQVSNKALPAPIEKTISKAKGQPREPQVYTLPPSRDELTKNQVSLTCLVKGFYPSDIAVEWESNGQPENNYKTTPPVLDSDGSFFLYSKLTVDKSRWQQGNVFSCSVMHEALHNHYTQKSLSLSPGKGGGGSGGGGSDIQMTQSPSSLSASVGDRVTITCRTSENIYSYLAWYQQKPGKAPKFLVYNAKTLAEGVPSRFSGSGSGTDFTLTISSLQPEDFATYYCQHYYGPPTWTFGQGTKVEIKGGGGSGGGGSGGGGSGGGGSEVQLVESGGGLVQPGGSLRLSCAASGFTFSTYGMSWVRQAPGKGLVWVATINSNGGSTSYPDSVKGRFTISRDNAKNTLYLQMNSLRAEDTAVYYCARFFRFRNAMDYWGQGTLVTVSS
light: DIQMTQSPSSLSASVGDRVTITCRPTENIYSYLAWYQQKPGKAPKLLIYFARTLAEGVPSRFSGSGSGTDFTLTISSLQPEDFATYYCQHHYGTPWTFGGGTKVEIKRTVAAPSVFIFPPSDEQLKSGTASVVCLLNNFYPREAKVQWKVDNALQSGNSQESVTEQDSKDSTYSLSSTLTLSKADYEKHKVYACEVTHQGLSSPVTKSFNRGEC
notes: hu1C5F12E9-V8 IgG with an anti-IL4R scFv (VL-VH) at the C-terminus of the heavy chain; AQQ and YTE already stand in the entry
Regarding B1, the EC50 in assay [1] worked out at 0.458 nM; in assay [4], 0.182 nM; in assay [7], 0.104 nM. Also, the Kd in assay [2] is less than 0.0141 nM; in assay [5], 4.88 nM. The results for the koff in assay [2] and in assay [5] were less than 1e-05 s⁻¹ and 0.000244 s⁻¹, respectively. The figures for the kon in assay [2] and in assay [5] were 710000 M⁻¹ s⁻¹ and 50000 M⁻¹ s⁻¹, respectively. The IC50 in assay [3] was found to be 0.326 nM; in assay [6], 0.38 nM; in assay [8], 1.13 nM.
